Source: patent US20220073608A1

Assays:
[1] = target: monkey SEMA4D, full length, on CHO-K1 cells (CHO-K1 cSEMA4D) (monkey); test: FACS, CHO-K1 cSEMA4D cells; Ab 66.7 nM
[2] = target: hSEMA4D ECD-His (His-tagged human SEMA4D protein extracellular domain, Met22-Arg734) (human) (UniProt Q92854); test: ELISA, coated hSEMA4D ECD-His; Ab 1.33 nM
[3] = target: hSEMA4D ECD-His (His-tagged human SEMA4D protein extracellular domain, Met22-Arg734) (human) (UniProt Q92854); test: ELISA, coated hSEMA4D ECD-His; Ab 6.67 nM
[4] = target: hSEMA4D ECD-His (His-tagged human SEMA4D protein extracellular domain, Met22-Arg734) (human) (UniProt Q92854); test: ELISA, coated hSEMA4D ECD-His; Ab 0.267 nM
[5] = target: hSEMA4D ECD-His (His-tagged human SEMA4D protein extracellular domain, Met22-Arg734) (human) (UniProt Q92854); test: ELISA, coated hSEMA4D ECD-His; Ab 0.0107 nM
[6] = target: hSEMA4D ECD-His (His-tagged human SEMA4D protein extracellular domain, Met22-Arg734) (human) (UniProt Q92854); test: ELISA, coated hSEMA4D ECD-His; Ab 0.0533 nM
[7] = target: hSEMA4D ECD-His (His-tagged human SEMA4D protein extracellular domain, Met22-Arg734) (human) (UniProt Q92854); test: ELISA, coated hSEMA4D ECD-His; Ab 0.00213 nM
[8] = target: hSEMA4D ECD-His (His-tagged human SEMA4D protein extracellular domain, Met22-Arg734) (human) (UniProt Q92854); test: ELISA, coated hSEMA4D ECD-His; Ab 0.000085 nM
[9] = target: hSEMA4D ECD-His (His-tagged human SEMA4D protein extracellular domain, Met22-Arg734) (human) (UniProt Q92854); test: ELISA, coated hSEMA4D ECD-His; Ab 0.00427 nM
[10] = target: hSEMA4D ECD-His (His-tagged human SEMA4D protein extracellular domain, Met22-Arg734) (human) (UniProt Q92854); test: ELISA, coated hSEMA4D ECD-His; Ab 13.3 nM
[11] = target: hSEMA4D ECD-His (His-tagged human SEMA4D protein extracellular domain, Met22-Arg734) (human) (UniProt Q92854); test: ELISA, coated hSEMA4D ECD-His; Ab 2.67 nM
[12] = target: hSEMA4D ECD-His (His-tagged human SEMA4D protein extracellular domain, Met22-Arg734) (human) (UniProt Q92854); test: ELISA, coated hSEMA4D ECD-His; Ab 0.107 nM
[13] = target: hSEMA4D ECD-His (His-tagged human SEMA4D protein extracellular domain, Met22-Arg734) (human) (UniProt Q92854); test: ELISA, coated hSEMA4D ECD-His; Ab 0.533 nM
[14] = target: hSEMA4D ECD-His (His-tagged human SEMA4D protein extracellular domain, Met22-Arg734) (human) (UniProt Q92854); test: ELISA, coated hSEMA4D ECD-His; Ab 0.0213 nM
[15] = target: hSEMA4D ECD-His (His-tagged human SEMA4D protein extracellular domain, Met22-Arg734) (human) (UniProt Q92854); test: ELISA, coated hSEMA4D ECD-His; Ab 0.00085 nM
[16] = target: hSEMA4D ECD-His (His-tagged human SEMA4D protein extracellular domain, Met22-Arg734) (human) (UniProt Q92854); test: ELISA, coated hSEMA4D ECD-His; Ab 0.0427 nM

MFI [1] | OD450 nm [2] | OD450 nm [3] | OD450 nm [4] | OD450 nm [5] | OD450 nm [6] | OD450 nm [7] | OD450 nm [8] | OD450 nm [9] | OD450 nm [10] | OD450 nm [11] | OD450 nm [12] | OD450 nm [13] | OD450 nm [14] | OD450 nm [15] | OD450 nm [16] | Substance
339 | 0.264 | 0.533 | 0.0791 | 0.0814 | 0.0805 | 0.0718 | 0.0686 | 0.0789 | – | – | – | – | – | – | – | Mouse IgG control (antibody)
– | – | – | – | – | – | – | – | – | 0.0766 | 0.074 | 0.0717 | 0.0748 | 0.0714 | 0.0781 | 0.0754 | Human IgG control (antibody)
